Reference: patent publication CN112745389A (REYOUNG SUZHOU BIOPHARMACEUTICAL CO LTD, dated 2021)
One block for each binder: values may come before it.

How the values were obtained:
[1] = target: T1, 人IL-5蛋白 (human interleukin-5) (human, UniProt P05113 20-134); test: cell-based or functional assay
T1 sequence (looked up): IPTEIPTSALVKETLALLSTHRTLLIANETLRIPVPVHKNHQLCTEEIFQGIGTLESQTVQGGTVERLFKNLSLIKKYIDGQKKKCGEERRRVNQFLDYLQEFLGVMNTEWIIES

[2] = target: T1, 人IL-5蛋白 (human interleukin-5); test: affinity measurement (sensorgram, 1:1 binding model; Figure 3)

IC50(ng/mL), 阻断增殖 (TF-1 proliferation, CellTiter-Glo) [1]: 16.3 ng/mL
B1: RB0003-30E6D5 (antibody, V domains shown)
VH: EVQLQQSGAELVKPGASVKLSCTTSGFNIKDYFIHWVKQRTEQGLEWIGRIDPEDGETKYAPKFQGKATITADTSSNTAYLQLSSLTSEDTAVYYCVSYSTYPDYWGQGTTLTVSS
VL: HIVLTQSPALMSTSPGEKVTMTCSASSSVSYMYWYQQKPRSSPKPWIYLTSTLASGVPARFSGSGSGTSYSLTISSMEAEDAATYYCQQWSSTPFTFGSGTKLEIKR

binding result [2]: binds
B2: 人源化32D12C12抗体 (humanized 32D12C12) (antibody, V domains shown)
VH: EVQLVESGGGLVQPGGSLKLSCAASGFTFNTYAMNWVRQASGKGLEWVGRIRSKTANFATFYADSVTDRFTISRDDSKNTLYLQMNSLKTEDTAVYYCVRHGAYYTYDGAMDYWGQGTTVTVSS
VL: DIQMTQSPSSLSASVGDRVTITCKASQDVRTAIAWYQQKPGKAPKLLIYWASTRHTGVPSRFSGSGSGTDYTLTISSLQPEDFATYYCQQHYSTPYTFGQGTKLEIK
